This test concerns the target T1, mature form of human VEGF-C (human, UniProt P49767 103-227).
T1 sequence: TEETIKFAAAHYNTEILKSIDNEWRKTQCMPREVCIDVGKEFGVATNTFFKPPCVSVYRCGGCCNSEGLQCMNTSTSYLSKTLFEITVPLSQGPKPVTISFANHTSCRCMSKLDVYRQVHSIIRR
The test can be described thus: cell-based or functional assay.

VEGFR-2-Ig (Fc fusion): the VEGF-C dependent viability (Ba/F3 VEGFR-3/EpoR, MTT) (fold molar excess) was determined as 10.

B1: VEGFR-3-Ig fusion protein (first three Ig-homology domains of VEGFR-3 and IgG Fc domain) (Fc fusion, not shown: a dimerising Fc or GST)
chain: YSMTPPTLNITEESHVIDTGDSLSISCRGQHPLEWAWPGAQEAPATGDKDSEDTGVVRDCEGTDARPYCKVLLLHEVHANDTGSYVCYYKYIKARIEGTTAASSYVFVRDFEQPFINKPDTLLVNRKDAMWVPCLVSIPGLNVTLRSQSSVLWPDGQEVVWDDRRGMLVSTPLLHDALYLQCETTWGDQDFLSNPFLVHITGNELYDIQLLPRKSLELLVGEKLVLNCTVWAEFNSGVTFDWDYPGKQAERGKWVPERRSQQTHTELSSILTIHNVSQHDLGSYVCKANNGIQRFRESTEVIVHE
Consider B1, for which the “VEGF-C-dependent cell survival (Ba/F3 VEGFR-3/EpoR, MTT)” value was 0.5 molar ratio (VEGFR-3-Ig:VEGF-C).

(Values after patent US20150141622A1 (published 2015).)
